IntAct's records for PubMed 26912900

B1: 26S proteasome regulatory subunit RPN1 (Saccharomyces cerevisiae), P38764 (parent)
chain: MVDESDKKQQTIDEQSQISPEKQTPNKKDKKKEEEEQLSEEDAKLKTDLELLVERLKEDDSSLYEASLNALKESIKNSTSSMTAVPKPLKFLRPTYPDLCSIYDKWTDPNLKSSLADVLSILAMTYSENGKHDSLRYRLLSDVSDFEGWGHEYIRHLALEIGEVYNDQVEKDAEDETSSDGSKSDGSAATSGFEFSKEDTLRLCLDIVPYFLKHNGEEDAVDLLLEIESIDKLPQFVDENTFQRVCQYMVACVPLLPPPEDVAFLKTAYSIYLSQNELTDAIALAVRLGEEDMIRSVFDATSDPVMHKQLAYILAAQKTSFEYEGVQDIIGNGKLSEHFLYLAKELNLTGPKVPEDIYKSHLDNSKSVFSSAGLDSAQQNLASSFVNGFLNLGYCNDKLIVDNDNWVYKTKGDGMTSAVASIGSIYQWNLDGLQQLDKYLYVDEPEVKAGALLGIGISASGVHDGEVEPALLLLQDYVTNPDTKISSAAILGLGIAFAGSKNDEVLGLLLPIAASTDLPIETAAMASLALAHVFVGTCNGDITTSIMDNFLERTAIELKTDWVRFLALALGILYMGQGEQVDDVLETISAIEHPMTSAIEVLVGSCAYTGTGDVLLIQDLLHRLTPKNVKGEEDADEEETAEGQTNSISDFLGEQVNEPTKNEEAEIEVDEMEVDAEGEEVEVKAEITEKKNGESLEGEEIKSEEKKGKSSDKDATTDGKNDDEEEEKEAGIVDELAYAVLGIALIALGEDIGKEMSLRHFGHLMHYGNEHIRRMVPLAMGIVSVSDPQMKVFDTLTRFSHDADLEVSMNSIFAMGLCGAGTNNARLAQLLRQLASYYSREQDALFITRLAQGLLHLGKGTMTMDVFNDAHVLNKVTLASILTTAVGLVSPSFMLKHHQLFYMLNAGIRPKFILALNDEGEPIKVNVRVGQAVETVGQAGRPKKITGWITQSTPVLLNHGERAELETDEYISYTSHIEGVVILKKNPDYREEE
partner: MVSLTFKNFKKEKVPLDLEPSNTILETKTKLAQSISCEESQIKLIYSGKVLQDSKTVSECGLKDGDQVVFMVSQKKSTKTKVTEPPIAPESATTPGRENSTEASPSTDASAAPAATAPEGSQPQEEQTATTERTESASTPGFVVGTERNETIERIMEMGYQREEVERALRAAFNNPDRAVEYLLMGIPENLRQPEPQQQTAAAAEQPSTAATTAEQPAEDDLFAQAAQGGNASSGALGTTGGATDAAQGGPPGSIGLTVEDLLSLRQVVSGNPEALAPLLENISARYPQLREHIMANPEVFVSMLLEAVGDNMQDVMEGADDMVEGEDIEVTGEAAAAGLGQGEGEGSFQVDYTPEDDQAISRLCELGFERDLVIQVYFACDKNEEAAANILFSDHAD

Variants of: B1
Conditions: with rad23_yeast RAD23, P32628

For D541A;D548R;E552R, which “effect of a mutation on the interaction” value is on record?
Its value is “disrupting interaction strength”.
